In the assay the target is T1, Vpr-Gal4DB chimeric protein (HIV-1, UniProt P04386 1-147; P12520 1-96).
T1 construct: also called Vpr-Gal4BD
The assay can be described thus: yeast two-hybrid, growth on histidine-deficient medium.

B1: wild type Gal4AD (other)
chain: ANFNQSGNIADSSLSFTFTNSSNGPNLITTQTNSQALSQPIASSNVHDNFMNNEITASKIDDGNNSKPLSPGWTDQTAYNAFGITTGMFNTTTMDDVYNYLFDDEDTPPNPKKE
B1: the binding result is “no binding”.
